Paper PMC9108660

Legend:
[1] = target: dCas9 (catalytically deactivated Cas9) (UniProt Q99ZW2); assay: SPR; conditions: SPR: 2 mM MgCl2, 37 °C, 30 min, 2 µL DNA (up to 1000 ng/µL), dRNP on graphdiyne chip, rinse 2 mM MgCl2, bead assay: 2 mM MgCl2, 37 °C, 1 h, pH not stated
[2] = target: dCas9 (catalytically deactivated Cas9) (UniProt Q99ZW2); assay: magnetic bead pull-down, qPCR; conditions: 2 mM Mg2+; SPR: 2 mM MgCl2, 37 °C, 30 min, 2 µL DNA (up to 1000 ng/µL), dRNP on graphdiyne chip, rinse 2 mM MgCl2; bead assay: 2 mM MgCl2, 37 °C, 1 h; pH not stated

UniProt Q99ZW2, sequence (Q99ZW2 whole entry): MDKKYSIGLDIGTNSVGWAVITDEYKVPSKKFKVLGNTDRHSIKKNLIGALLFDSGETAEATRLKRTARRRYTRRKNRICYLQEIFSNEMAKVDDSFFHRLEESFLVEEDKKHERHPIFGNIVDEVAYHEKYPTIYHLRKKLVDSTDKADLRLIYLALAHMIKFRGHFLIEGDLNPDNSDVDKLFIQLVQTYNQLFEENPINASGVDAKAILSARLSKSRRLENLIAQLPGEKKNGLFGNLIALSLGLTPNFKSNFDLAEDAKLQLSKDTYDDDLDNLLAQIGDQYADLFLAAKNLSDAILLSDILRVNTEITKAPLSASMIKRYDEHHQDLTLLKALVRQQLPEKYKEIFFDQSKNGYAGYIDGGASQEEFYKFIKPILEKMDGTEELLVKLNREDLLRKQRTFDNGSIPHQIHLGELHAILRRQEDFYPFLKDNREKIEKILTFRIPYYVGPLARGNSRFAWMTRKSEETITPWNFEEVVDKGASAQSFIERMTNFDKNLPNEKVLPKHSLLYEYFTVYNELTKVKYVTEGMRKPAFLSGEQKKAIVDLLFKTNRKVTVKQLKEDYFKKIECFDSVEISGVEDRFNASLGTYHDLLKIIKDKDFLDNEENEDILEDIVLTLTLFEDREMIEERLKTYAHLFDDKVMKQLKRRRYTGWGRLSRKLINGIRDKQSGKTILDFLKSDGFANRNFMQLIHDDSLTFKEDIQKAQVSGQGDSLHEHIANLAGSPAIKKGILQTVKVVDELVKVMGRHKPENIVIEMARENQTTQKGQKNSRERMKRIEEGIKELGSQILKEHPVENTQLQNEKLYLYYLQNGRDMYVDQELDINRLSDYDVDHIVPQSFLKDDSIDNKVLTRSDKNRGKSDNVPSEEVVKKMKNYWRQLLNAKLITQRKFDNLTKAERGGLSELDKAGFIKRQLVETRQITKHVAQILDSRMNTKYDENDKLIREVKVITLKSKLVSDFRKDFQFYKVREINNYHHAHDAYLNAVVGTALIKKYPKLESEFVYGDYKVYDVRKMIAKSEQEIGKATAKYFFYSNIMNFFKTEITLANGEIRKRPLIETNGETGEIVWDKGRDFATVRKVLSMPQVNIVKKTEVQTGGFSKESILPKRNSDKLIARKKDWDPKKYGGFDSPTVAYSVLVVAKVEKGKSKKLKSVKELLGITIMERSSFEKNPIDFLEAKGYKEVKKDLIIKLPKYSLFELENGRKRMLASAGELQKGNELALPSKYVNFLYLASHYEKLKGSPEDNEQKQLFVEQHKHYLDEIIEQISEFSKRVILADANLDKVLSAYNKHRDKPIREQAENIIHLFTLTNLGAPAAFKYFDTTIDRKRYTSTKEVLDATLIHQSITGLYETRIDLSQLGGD

Row | Sequence | Kd ([1]; 2 mM Mg2+, ka 0.11e5 M-1s-1, kd 6.5e-3 s-1) [nM] | binding signal [2] [% captured] | Kd [1]
1 | GGGGUUCGCCUUCCGCCGCGUGGGUUUUAGAGCUAGAAAUAGCAAGUUAAAAUAAGGCUAGU [sgRNA-GFP-Pos3 + pCDH-GFP-5k amplicon] | 591 |  | 
2 | GGGUGCCUGCAGCUCCACACUAGGUUUUAGAGCUAGAAAUAGCAAGUUAAAAUAAGGCUAGU [sgRNA-Mut3 + pUC19-Mut3-0.3k amplicon] |  | 99.8 | 
3 | GGGUGCCUGCAGCUCCACACUAGGUUUUAGAGCUAGAAAUAGCAAGUUAAAAUAAGGCUAGU [sgRNA-Mut3 + pUC19-Mut3-0.8k amplicon] |  | 99.8 | 7.61 10^-8 M
4 | GGGUGCCUGCAGGUCGCACCUAGGUUUUAGAGCUAGAAAUAGCAAGUUAAAAUAAGGCUAGU [sgRNA-Mut1 + pUC19-Mut1-0.3k amplicon] |  | 89.2 | 
5 | GGGUGCCUGCAGGUCGCACCUAGGUUUUAGAGCUAGAAAUAGCAAGUUAAAAUAAGGCUAGU [sgRNA-Mut1 + pUC19-Mut1-0.8k amplicon] |  | 69.8 | 
6 | GGGUGUAGUAGCCGCCGUCGCGCGUUUUAGAGCUAGAAAUAGCAAGUUAAAAUAAGGCUAGU [sgRNA-GFP-Pos2 + pCDH-GFP-2k amplicon] |  | 99.4 | 
7 | GGGUGUAGUAGCCGCCGUCGCGCGUUUUAGAGCUAGAAAUAGCAAGUUAAAAUAAGGCUAGU [sgRNA-GFP-Pos2 + pCDH-GFP-5k amplicon] |  | 99.7 | 1.38 10^-8 M
